Results taken from patent US20140335107A1 (published 2014).
Positions count from the first letter of the chain named. Numbers in names are those of the source. Where no end group is shown, it is not given here.

What was measured:
[1] = target: T1, extracellular domain of human CD79b fused to Fc (huCD79becd-Fc) (human, UniProt P40259 29-159); test: Biacore (SPR), Fab against IgG on immobilized huCD79becd-Fc
T1 construct: expressed in CHO cells; also called huCD79b-Fc; not shown: Fc part of the fusion is not described
T1 sequence: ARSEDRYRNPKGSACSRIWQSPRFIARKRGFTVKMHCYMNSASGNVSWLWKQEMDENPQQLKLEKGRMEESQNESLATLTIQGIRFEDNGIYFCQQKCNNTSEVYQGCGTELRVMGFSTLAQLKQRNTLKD
Method: (§1) Binding of Fab and IgG variants of MA79b, the MA79b-grafted “humanized” antibody or MA79b-grafted “humanized” antibody variants to immobilized huCD79becd or huCD79b-Fc or the 16 amino acid peptide containing the epitope for MA79b was measured by surface plasma resonance. Affinity determinations were performed by surface plasmon resonance using a BIAcore™-2000. The antigen, huCD79becd or huCD79b-Fc was immobilized (approximately 50-200 RU) in 10 mM sodium acetate pH 4.8 on a CM5 sensor chip. Due to a large avidity effect, affinity measurements were sensitive to the amount of huCD79becd immobilized. For this reason, affinities, determined for samples run on different days, were normalized to MA79b that was run along side as a standard. In experiments that measured binding to the 16 amino acid peptide containing the epitope for MA79b ([…]) (SEQ ID NO: 16), the biotinylated peptide was captured (approximately 20 RU) on a streptavidin coated sensor chip. Purified MA79b-grafted “humanized” antibody variant (as Fab or IgG) (a 2-fold serial dilution of 0.5 to 1000 nM in PBST) was injected at a flow rate of 30 μL/min. Each sample was analyzed with 4-minute association and 10-minute disassociation. After each injection the chip was regenerated using 10 mM Glycine pH 1.7. […]

human CD79b [2] = target: T2, human CD79b (human, UniProt P40259 29-229); test: Scatchard analysis, 125I-labeled IgG competed with unlabeled IgG on BJAB cells stably expressing cynomolgus CD79b and endogenous human CD79b
T2 construct: endogenous CD79b on B-cell lines (BJAB, BJAB-luciferase, DoHH-2); also called PRO36249; CD79b expressed on the surface of BJAB-luciferase cells
T2 sequence: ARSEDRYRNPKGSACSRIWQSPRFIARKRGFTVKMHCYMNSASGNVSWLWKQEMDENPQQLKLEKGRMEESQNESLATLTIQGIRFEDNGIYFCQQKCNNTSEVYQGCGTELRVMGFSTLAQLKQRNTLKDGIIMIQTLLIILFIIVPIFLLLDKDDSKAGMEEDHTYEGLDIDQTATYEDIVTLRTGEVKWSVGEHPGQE
Method: To further determine binding of the IgG variants having changes in HVR-L2 and HVR-H3 (huMA79b L2/H3), binding of iodinated IgG variants to BJAB cells expressing human CD79b and cynomologous CD79b was analyzed and Scatchard analysis was performed.
For Scatchard analysis, 0.5 nM I¹²⁵ labeled MA79b or huMA79b L2/H3 was competed against unlabeled MA79b or huMA79b L2/H3, respectively, ranging from 50 to 0.02 nM (12 step 1:2 serial dilution) in the presence of a transfected BJAB line stably expressing cynomologous-CD79b and endogenous human-CD79b. After a four hour incubation at 4° C., cells were washed and cell pellet counts were read by a gamma counter (1470 WIZARD Automatic Gamma Counter; Perkin Elmer, Walthem, Mass.). All points were done in triplicate and counted for 10 minutes. The average CPM was used for Kd calculation using the New Ligand (Genentech, South San Francisco, Calif.) program.

[3] = target: T3, extracellular domain of human CD79b (huCD79becd) (human, UniProt P40259 29-159); test: phage selection, Fab on phage
T3 construct: expressed in CHO cells
T3 sequence: T1 sequence
Method: For phage selection, the extracellular domain of CD79b (huCD79becd) (2 μg/ml) was immobilized in PBS on MaxiSorp microtiter plates (Nunc) overnight at 4° C. Plates were blocked for at least 1 h using Casein Blocker (Pierce). Phage were harvested from the culture supernatant and suspended in PBS containing 0.5% BSA and 0.05% Tween 20 (PBSBT). Following addition of the phage library and phage selection for 2 h, microtiter wells were washed extensively with PBS containing 0.05% Tween 20 (PBST) to remove unbound phage and bound phage were eluted by incubating the wells with 100 mM HCl for 30 min. Selection stringency may be increased during successive rounds of selection by increasing the number of washes with PBST or by incubating with soluble huCD79becd for increasing time periods prior to elution.

human CD79b [4] = target: T2, human CD79b; test: FACS on DoHH-2 cells, Fab (data not shown)
Method: To further determine binding of the Fab variants of MA79b-grafted “humanized” antibody or antibody variants, binding of Fab and/or IgG variants to DoHH-2 cells were analyzed using FACS analysis. Further, binding of MA79b-grafted “humanized” antibody variants to BJAB-luciferase cells was analyzed using FACS analysis.
For FACS analysis of Fab variants of MA79b-grafted “humanized” antibody variants (MA79b-grafted “humanized” antibody (IgG version used as a control)), DoHH-2 cells (1×10⁶ in 100 μl volume) were first incubated with or without 1 μg of original mouse anti-CD79b monoclonal antibody (MA79b) for 30 minutes, before adding 1 μg of individual Fab variant (or control antibody).

[5] = target: T1, extracellular domain of human CD79b …; test: Biacore (SPR), Fab
Method: as §1

[6] = target: T3, extracellular domain of human CD79b …; test: Biacore (SPR), IgG
Method: as §1

[7] = target: T3, extracellular domain of human CD79b …; test: FACS analysis, IgG (data not shown)
[8] = target: T4, 16 amino acid peptide containing the epitope for MA79b (ARSEDRYRNPKGSACK) (human, also: biotinylated (site not given here)); test: Biacore (SPR), biotinylated peptide captured on streptavidin chip
T4 construct: synthesized; captured on a streptavidin coated sensor chip; also called biotinylated peptide
T4 peptide: ARSEDRYRNPKGSACK
Method: as §1

human CD79b [9] = target: T2, human CD79b; test: FACS on BJAB-luciferase cells
Method: The binding affinity of thio huMA79b.v18, thio huMA79b.v28 drug conjugates and thio MA79b drug conjugates to CD79b expressed on BJAB-luciferase cells was determined by FACS analysis. Further, the binding affinity of thio anti-cynoCD79b(ch10D10) drug conjugates to CD79b expressed on BJAB cells expressing cynoCD79b was determined by FACS analysis.
Briefly, approximately 1×10⁶ cells in 100 μl were contacted with varying amounts (1.0 μg, 01. μg or 0.01 μg of Ab per million cells of BJAB-luciferase cells or BJAB cells expressing cynoCD79b (for anti-cynoCD79b thioMAbs)) of one of the following anti-CD79b thioMAb drug conjugates or naked (unconjugated Ab as a control): (1) thio MA79b-LC(V205C)-MC-MMAF or (2) thio MA79b-HC(A118C)-MC-MMAF (FIGS. 29A-B, respectively); (3) thio huMA79b.v18-HC(A118C)-MC-MMAF, (4) thio huMA79b.v18-HC(A118C)-MC-vcPAB-MMAE or (5) thio huMA79b.v18-HC(A118C)-BMPEO-DM1 (FIGS. 30B-D, respectively); (6) thio huMA79b.v28-HC(A118C)-MCvcPAB-MMAE, (7) thio huMA79b.v28-HC(A118C)-BMPEO-DM1, or (8) thio huMA79b.v28-HC(A118C)-MC-MMAF (see FIGS. 31B-31D, respectively); or (9) thio anti-cynoCDb79(ch10D10)-HC(A118C)-MCvcPAB-MMAE, (10) thio anti-cynoCD79b(ch10D10)-HC(A118C)-BMPEO-DM1 or (11) thio anti-cynoCD79b(ch10D10)-HC(A118C)-MC-MMAF (see FIGS. 32B-32D, respectively). PE conjugated mouse anti-human Ig was used as the secondary detecting antibody (BD Cat#555787).

[10] = target: T3, extracellular domain of human CD79b …; test: Biacore (SPR), IgG (FIG. 12)
Method: as §1

human CD79b [11] = target: T2, human CD79b; test: Scatchard analysis on BJAB cells stably expressing cynomolgus CD79b and endogenous human CD79b

B1: murine anti-CD79b monoclonal antibody MA79b (antibody, V domains shown)
VL: DIVLTQSPASLAVSLGQRATISCKASQSVDYDGDSFLNWYQQKPGQPPKLFIYAASNLESGIPARFSGSGSGTDFTLNIHPVEEEDAATYYCQQSNEDPLTFGAGTELELKR
VH: EVQLQQSGAELMKPGASVKISCKATGYTFSSYWIEWVKQRPGHGLEWIGEILPGGGDTNYNEIFKGKATFTADTSSNTAYMQLSSLTSEDSAVYYCTRRVPVYFDYWGQGTSVTVSS
notes: murine monoclonal IgG; 125I-labeled in the Scatchard assay; also called murine CD79b antibody
[1]
  fold avidity component (dimeric IgG binding against monomeric Fab binding): 100 fold
Human CD79b [2]
  Kd: 0.63 nM

B2: huMA79b graft variant with HVR-H3 of SEQ ID NO: 94 (huMA79b H3-10), Fab (Fab, name in Kabat numbering, V domains shown)
VH: EVQLVESGGGLVQPGGSLRLSCAASGYTFSSYWIEWVRQAPGKGLEWVGEILPGGGDTNYNEIFKGRFTISADTSKNTAYLQMNSLRAEDTAVYYCTRRVPIRLDYWGQGTLVTVSS
VL: DIQMTQSPSSLSASVGDRVTITCKASQSVDYDGDSFLNWYQQKPGKAPKLLIYAASNLESGVPSRFSGSGSGTDFTLTISSLQPEDFATYYCQQSNEDPLTFGQGTKVEIKR
notes: selected as Fab on phage; also made as soluble Fab for FACS; also called H3-10 mutation
[3]
  binding result: binds
Human CD79b [4]
  binding result: binds

B3: huMA79b graft variant with HVR-L2 of SEQ ID NO: 22 (huMA79b L2-2), Fab (Fab, name in Kabat numbering, V domains shown)
VH: B2 VH with I102V, R103Y, L104F
VL: B2 VL with S56R, N57K, E59G, S60R
notes: selected as Fab on phage; also made as soluble Fab for FACS and Biacore; also called L2-2 mutation
[5]
  fold improvement in monomeric binding compared to MA79b (Fab): 5 fold

B4: MA79b-grafted humanized antibody (huMA79b graft), IgG (antibody, V domains shown)
VH: B2 VH with I102V, R103Y, L104F
VL: B2 VL
notes: expressed as an IgG
[6]
  fold loss of binding affinity: > 50 fold
[7]
  fold reduction of binding affinity: > 100 fold

B5: MA79b-grafted humanized antibody variant L2/H3 (huMA79b L2/H3), IgG (antibody, name in Kabat numbering, V domains shown)
VH: B2 VH
VL: B2 VL with S56R, N57K, E59G, S60R
notes: L2-2 and H3-10 mutations combined on the huMA79b graft; 125I-labeled in the Scatchard assay
[8]
  binding result: binds
Human CD79b [2]
  Kd: 0.52 nM

B6: MA79b-grafted humanized antibody variant 18 (huMA79b.v18) (antibody, human IgG1, kappa)
light: DIQLTQSPSSLSASVGDRVTITCKASQSVDYDGDSFLNWYQQKPGKAPKLLIYAASNLESGVPSRFSGSGSGTDFTLTISSLQPEDFATYYCQQSNEDPLTFGQGTKVEIKRTVAAPSVFIFPPSDEQLKSGTASVVCLLNNFYPREAKVQWKVDNALQSGNSQESVTEQDSKDSTYSLSSTLTLSKADYEKHKVYACEVTHQGLSSPVTKSFNRGEC
heavy: not shown
notes: IgG
[6]
  fold improvement in dimeric binding compared to variant 17: 2 fold

B7: thio huMA79b.v28-HC(A118C)-BMPEO-DM1 (antibody, human IgG1, kappa)
light: B6 light with D32E
heavy: not shown
modifications: BMPEO-DM1 on the engineered Cys at EU position 118 (sequential position 118; Kabat position 114)
notes: TDC
Human CD79b [9]
  binding result: binds

B8: thio huMA79b.v28-HC(A118C)-MC-MMAF (antibody, human IgG1, kappa)
light: B6 light with D32E
heavy: not shown
modifications: MC-MMAF on the engineered Cys at EU position 118 (sequential position 118; Kabat position 114)
notes: TDC
Human CD79b [9]
  binding result: binds

B9: thio huMA79b.v28-HC(A118C)-MCvcPAB-MMAE (antibody, human IgG1, kappa)
light: B6 light with D32E
heavy: not shown
modifications: MC-val-cit-PAB-MMAE on the engineered Cys at EU position 118 (sequential position 118; Kabat position 114)
notes: TDC; also called thio huMA79b.v28-HC(A118C)-MC-val-cit-PAB-MMAE
Human CD79b [9]
  binding result: binds

B10: MA79b-grafted humanized antibody variant 17 (huMA79b.v17) (antibody, human IgG1, kappa, V domains shown)
VH: B2 VH with V48I, F68A, I70F, I102V, R103Y, L104F
VL: B2 VL with M4L
notes: IgG
[10]
  binding result: binds

B11: thio huMA79b.v18-HC(A118C)-BMPEO-DM1 (antibody, human IgG1, kappa)
light: B6 light
heavy: not shown
modifications: BMPEO-DM1 on the engineered Cys at EU position 118 (sequential position 118; Kabat position 114)
notes: TDC; also called huMA79b.v18-HC(A118C) thioMAb-BMPEO-DM1
Human CD79b [9]
  binding result: binds

B12: MA79b-grafted humanized antibody variant 32 (huMA79b.v32) (antibody, human IgG1, kappa, V domains shown)
VH: B2 VH with V48I, F68A, I70F
VL: B2 VL with M4L, D32S, L51F
notes: IgG
Human CD79b [11]
  Kd: 0.24 nM

B13: thio huMA79b.v18-HC(A118C)-MCvcPAB-MMAE (antibody, human IgG1, kappa)
light: B6 light
heavy: not shown
modifications: MC-val-cit-PAB-MMAE on the engineered Cys at EU position 118 (sequential position 118; Kabat position 114)
notes: TDC
Human CD79b [9]
  binding result: binds

B14: MA79b-grafted humanized antibody variant 28 (huMA79b.v28) (antibody, human IgG1, kappa)
light: B6 light with D32E
heavy: not shown
notes: IgG
Human CD79b [11]
  Kd: 0.44 nM

B15: thio huMA79b.v18-HC(A118C)-MC-MMAF (antibody, human IgG1, kappa)
light: B6 light
heavy: not shown
modifications: MC-MMAF on the engineered Cys at EU position 118 (sequential position 118; Kabat position 114)
notes: TDC
Human CD79b [9]
  binding result: binds
